Reference: patent US20110098217A1 (INDIANA UNIVERSITY RESEARCH AND TECHNOLOGY, published 2011)
Like-named read-outs stand apart in the source and are kept apart here. Bridge positions count the residues as written; N and C are the ends. Square brackets hold non-standard residues; d marks the D form. Ends that are not written are not given here. * marks the point of attachment. COCH2CH2S‑Chol = CC(C)CCC[C@@H](C)[C@H]1CC[C@H]2[C@@H]3CC=C4C[C@@H](SCCC(=O)*)CC[C@]4(C)[C@H]3CC[C@]12C; Abu(4-SO3H) = N[C@@H](CCS(=O)(=O)O)C(=O)O; PhLac = O=C(O)[C@@H](O)Cc1ccccc1; Aib = CC(C)(N)C(=O)O

Columns and labels:
[1] = biological target: human GLP-1 receptor (human) (UniProt P43220); test: cell-based or functional assay
Chain of human GLP-1 receptor (human) (P43220 24-463): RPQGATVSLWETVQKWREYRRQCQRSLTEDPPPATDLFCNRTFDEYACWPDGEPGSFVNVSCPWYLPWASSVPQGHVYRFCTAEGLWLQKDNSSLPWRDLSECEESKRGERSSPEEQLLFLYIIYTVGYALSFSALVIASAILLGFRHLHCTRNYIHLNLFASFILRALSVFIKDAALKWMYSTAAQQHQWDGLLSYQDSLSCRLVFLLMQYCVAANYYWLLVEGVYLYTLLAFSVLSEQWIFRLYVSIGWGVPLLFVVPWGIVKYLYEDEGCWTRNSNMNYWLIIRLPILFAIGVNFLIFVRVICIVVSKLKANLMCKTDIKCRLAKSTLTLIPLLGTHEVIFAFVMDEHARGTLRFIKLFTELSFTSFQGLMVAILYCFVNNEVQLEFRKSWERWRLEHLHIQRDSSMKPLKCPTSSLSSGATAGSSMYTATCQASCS

[2] = biological target: T1, human glucagon receptor (human, UniProt P47871 26-477); test: cell-based or functional assay
T1 sequence (P47871 26-477): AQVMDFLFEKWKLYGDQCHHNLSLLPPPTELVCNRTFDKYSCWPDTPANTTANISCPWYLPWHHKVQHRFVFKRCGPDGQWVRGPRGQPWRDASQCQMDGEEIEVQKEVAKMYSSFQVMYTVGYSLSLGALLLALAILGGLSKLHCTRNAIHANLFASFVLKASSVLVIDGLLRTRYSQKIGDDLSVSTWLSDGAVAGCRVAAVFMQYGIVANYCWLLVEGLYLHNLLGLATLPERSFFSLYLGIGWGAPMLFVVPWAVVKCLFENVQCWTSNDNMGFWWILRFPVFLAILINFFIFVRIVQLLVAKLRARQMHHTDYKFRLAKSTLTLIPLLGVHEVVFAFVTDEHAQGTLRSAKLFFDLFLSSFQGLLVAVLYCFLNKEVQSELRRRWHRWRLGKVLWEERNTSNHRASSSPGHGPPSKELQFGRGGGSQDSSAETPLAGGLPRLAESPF

[3] = biological target: human glucagon receptor (human) (UniProt P47871); test: cell-based or functional assay
Chain of human glucagon receptor (human) (P47871 26-477): as above

[4] = biological target: T2, human GLP-1 receptor (human, UniProt P43220 24-463); test: cell-based or functional assay
[5] = biological target: T2, human GLP-1 receptor; test: cell-based or functional assay; remark: listed apart in the source
[6] = biological target: T1, human glucagon receptor; test: cell-based or functional assay; remark: listed apart in the source
[7] = biological target: T2, human GLP-1 receptor; test: cell-based or functional assay; remark: listed apart in the source
[8] = biological target: T1, human glucagon receptor; test: cell-based or functional assay; remark: listed apart in the source
[9] = biological target: T2, human GLP-1 receptor; test: cell-based or functional assay; remark: listed apart in the source
[10] = biological target: T1, human glucagon receptor; test: cell-based or functional assay; remark: listed apart in the source
[11] = biological target: T1, human glucagon receptor; test: cell-based or functional assay; remark: listed apart in the source
[12] = biological target: T2, human GLP-1 receptor; test: cell-based or functional assay; remark: listed apart in the source
[13] = biological target: T1, human glucagon receptor; test: cell-based or functional assay; remark: listed apart in the source
[14] = biological target: human glucagon receptor (human) (UniProt P47871); test: cell-based or functional assay; remark: listed apart in the source
[15] = biological target: human glucagon receptor (human) (UniProt P47871); test: cell-based or functional assay; remark: listed apart in the source
[16] = biological target: human GLP-1 receptor (human) (UniProt P43220); test: cell-based or functional assay; remark: listed apart in the source
[17] = biological target: T1, human glucagon receptor; test: SPA competition vs 125I-glucagon, receptor membranes
[18] = biological target: T1, human glucagon receptor; test: cell-based or functional assay; remark: listed apart in the source
[19] = biological target: T1, human glucagon receptor; test: cell-based or functional assay; remark: listed apart in the source
[20] = biological target: T1, human glucagon receptor; test: SPA competition vs 125I-glucagon, receptor membranes; remark: listed apart in the source

[E9, E16, K20] G(6-39) (peptide)
GLP-1 agonism EC50 [1]: 1040 nM

[d-Cys^5(20kDaPEG), E^9]Glucagon(aa5-29)-NH2 (peptide)
IC50 (cAMP, inhibit 0.2 mM Glucagon) [2]: 14800 nM

[E9, E16K20(lactam)]G(6-39) (peptide)
Glu IC50 [3]: 42 nM | Glucagon IC50 [3]: 42 nM | Glucagon antagonism IC50 (inhibit 0.2-0.8 nM glucagon) [3]: 42 nM | GLP-1 EC50 [1]: 36 nM | GLP-1 agonism EC50 [1]: 36.4 nM

B1: [G4T5, E9, E16K20(Lactam), D28] G(4-29) (peptide)
peptide: GTFTSEYSKYLDERRAKDFVQWLMDT-NH2
modifications: lactam 13-17; N-terminus assumed
SMILES: CSCC[C@H](NC(=O)[C@H](CC(C)C)NC(=O)[C@H](Cc1c[nH]c2ccccc12)NC(=O)[C@H](CCC(N)=O)NC(=O)[C@@H](NC(=O)[C@H](Cc1ccccc1)NC(=O)[C@H](CC(=O)O)NC(=O)[C@@H]1CCCCNC(=O)CC[C@H](NC(=O)[C@H](CC(=O)O)NC(=O)[C@H](CC(C)C)NC(=O)[C@H](Cc2ccc(O)cc2)NC(=O)[C@H](CCCCN)NC(=O)[C@H](CO)NC(=O)[C@H](Cc2ccc(O)cc2)NC(=O)[C@H](CCC(=O)O)NC(=O)[C@H](CO)NC(=O)[C@@H](NC(=O)[C@H](Cc2ccccc2)NC(=O)[C@@H](NC(=O)CN)[C@@H](C)O)[C@@H](C)O)C(=O)N[C@@H](CCCNC(=N)N)C(=O)N[C@@H](CCCNC(=N)N)C(=O)N[C@@H](C)C(=O)N1)C(C)C)C(=O)N[C@@H](CC(=O)O)C(=O)N[C@H](C(N)=O)[C@@H](C)O
GLP-1 EC50 [4]: 151 nM | GLP-1 agonism EC50 [5]: 151 nM | Glucagon antagonism IC50 (inhibit 0.8 nM glucagon) [6]: 12.7 nM

B2: [H1A2E3, E9, E16K20(Lactam), D28]G(1-29) (peptide)
peptide: HAEGTFTSEYSKYLDERRAKDFVQWLMDT-NH2
modifications: lactam 16-20; N-terminus assumed
SMILES: CSCC[C@H](NC(=O)[C@H](CC(C)C)NC(=O)[C@H](Cc1c[nH]c2ccccc12)NC(=O)[C@H](CCC(N)=O)NC(=O)[C@@H](NC(=O)[C@H](Cc1ccccc1)NC(=O)[C@H](CC(=O)O)NC(=O)[C@@H]1CCCCNC(=O)CC[C@H](NC(=O)[C@H](CC(=O)O)NC(=O)[C@H](CC(C)C)NC(=O)[C@H](Cc2ccc(O)cc2)NC(=O)[C@H](CCCCN)NC(=O)[C@H](CO)NC(=O)[C@H](Cc2ccc(O)cc2)NC(=O)[C@H](CCC(=O)O)NC(=O)[C@H](CO)NC(=O)[C@@H](NC(=O)[C@H](Cc2ccccc2)NC(=O)[C@@H](NC(=O)CNC(=O)[C@H](CCC(=O)O)NC(=O)[C@H](C)NC(=O)[C@@H](N)Cc2c[nH]cn2)[C@@H](C)O)[C@@H](C)O)C(=O)N[C@@H](CCCNC(=N)N)C(=O)N[C@@H](CCCNC(=N)N)C(=O)N[C@@H](C)C(=O)N1)C(C)C)C(=O)N[C@@H](CC(=O)O)C(=O)N[C@H](C(N)=O)[C@@H](C)O
GLP-1 agonism EC50 [7]: 0.11 nM | Glucagon antagonism IC50 (inhibit 0.8 nM glucagon) [8]: 129 nM | GLP-1 agonism EC50 [9]: 0.11 nM | Glucagon antagonism IC50 (inhibit 0.2-0.8 nM glucagon) [10]: 129 nM | GLP-1 EC50 [4]: 0.2 nM | Glucagon IC50 [11]: 130 nM | GLP-1 agonism EC50 [5]: 0.11 nM | Glucagon antagonism IC50 (inhibit 0.8 nM glucagon) [6]: 129 nM

B3: Aib depsi lactam G(2-29) (peptide)
peptide: [Aib]EGT[PhLac]TSDYSKYLDERRAKDFVQWLMDT-NH2
modifications: lactam 15-19; also: PLA6 linked to Thr5 by an ester bond (depsipeptide)
GLP-1 agonism EC50 [12]: 5.83 nM | Glucagon antagonism IC50 (inhibit 0.4 nM glucagon) [13]: 11.8 nM

B4: [E9, E16]G(6-39) (peptide)
peptide: FTSEYSKYLDERRAQDFVQWLMNTGPSSGAPPPS
modifications: C-terminal amide
Glu IC50 [14]: 762 nM | Glucagon antagonism IC50 (inhibit 0.2-0.8 nM glucagon) [14]: 762 nM | Glucagon IC50 [15]: 762 nM

B5: E9, K12E16(lactam) glucagon(6-39) (peptide)
peptide: FTSEYSKYLDERRAQDFVQWLMNTGPSSGAPPPS
modifications: lactam bridge Lys12-Glu16 (native glucagon numbering); C-terminal amide
Glu IC50 [14]: 2010 nM | GLP-1 EC50 [16]: 63 nM | Glucagon IC50 [15]: 2010 nM

B6: [hCys^9(SO3H)]Glucagon(aa4-29)-NH2 (peptide)
peptide: GTFTS[Abu(4-SO3H)]YSKYLDSRRAQDFVQWLMNT-NH2
modifications: N-terminus assumed
SMILES: CSCC[C@H](NC(=O)[C@H](CC(C)C)NC(=O)[C@H](Cc1c[nH]c2ccccc12)NC(=O)[C@H](CCC(N)=O)NC(=O)[C@@H](NC(=O)[C@H](Cc1ccccc1)NC(=O)[C@H](CC(=O)O)NC(=O)[C@H](CCC(N)=O)NC(=O)[C@H](C)NC(=O)[C@H](CCCNC(=N)N)NC(=O)[C@H](CCCNC(=N)N)NC(=O)[C@H](CO)NC(=O)[C@H](CC(=O)O)NC(=O)[C@H](CC(C)C)NC(=O)[C@H](Cc1ccc(O)cc1)NC(=O)[C@H](CCCCN)NC(=O)[C@H](CO)NC(=O)[C@H](Cc1ccc(O)cc1)NC(=O)[C@H](CCS(=O)(=O)O)NC(=O)[C@H](CO)NC(=O)[C@@H](NC(=O)[C@H](Cc1ccccc1)NC(=O)[C@@H](NC(=O)CN)[C@@H](C)O)[C@@H](C)O)C(C)C)C(=O)N[C@@H](CC(N)=O)C(=O)N[C@H](C(N)=O)[C@@H](C)O
IC50 [17]: 41.5 nM | cAMP IC50 [18]: 68.4 nM | cAMP pA2 [18]: 7.22

B7: [hCys^9(SO3H)]Glucagon(aa6-29)-NH2 (peptide)
peptide: FTS[Abu(4-SO3H)]YSKYLDSRRAQDFVQWLMNT-NH2
notes: also called [hCys(SO3)9]Glucagon(aa6-29)-NH2
IC50 [17]: 59.1 nM | cAMP IC50 [19]: 133 nM | cAMP pA2 [19]: 7.16 | IC50 [20]: 59.1 nM | cAMP IC50 [18]: 133 nM | cAMP pA2 [18]: 7.16

B8: K10-chol G(6-29) (peptide)
peptide: [PhLac]TSDK(COCH2CH2S‑Chol)SKYLDERRAKDFVQWLMDT-NH2
modifications: lactam 11-15; N-terminus assumed
SMILES: CSCC[C@H](NC(=O)[C@H](CC(C)C)NC(=O)[C@H](Cc1c[nH]c2ccccc12)NC(=O)[C@H](CCC(N)=O)NC(=O)[C@@H](NC(=O)[C@H](Cc1ccccc1)NC(=O)[C@H](CC(=O)O)NC(=O)[C@@H]1CCCCNC(=O)CC[C@H](NC(=O)[C@H](CC(=O)O)NC(=O)[C@H](CC(C)C)NC(=O)[C@H](Cc2ccc(O)cc2)NC(=O)[C@H](CCCCN)NC(=O)[C@H](CO)NC(=O)[C@H](CCCCNC(=O)CCS[C@H]2CC[C@@]3(C)C(=CC[C@H]4[C@@H]5CC[C@H]([C@H](C)CCCC(C)C)[C@@]5(C)CC[C@@H]43)C2)NC(=O)[C@H](CC(=O)O)NC(=O)[C@H](CO)NC(=O)[C@@H](NC(=O)[C@@H](O)Cc2ccccc2)[C@@H](C)O)C(=O)N[C@@H](CCCNC(=N)N)C(=O)N[C@@H](CCCNC(=N)N)C(=O)N[C@@H](C)C(=O)N1)C(C)C)C(=O)N[C@@H](CC(=O)O)C(=O)N[C@H](C(N)=O)[C@@H](C)O
GLP-1 agonism EC50 [12]: 35.2 nM | Glucagon antagonism IC50 (inhibit 0.4 nM glucagon) [13]: 271 nM

B9: K30-chol G(6-30) (peptide)
peptide: [PhLac]TSDYSKYLDERRAKDFVQWLMDTK(COCH2CH2S‑Chol)-NH2
modifications: lactam 11-15; N-terminus assumed
SMILES: CSCC[C@H](NC(=O)[C@H](CC(C)C)NC(=O)[C@H](Cc1c[nH]c2ccccc12)NC(=O)[C@H](CCC(N)=O)NC(=O)[C@@H](NC(=O)[C@H](Cc1ccccc1)NC(=O)[C@H](CC(=O)O)NC(=O)[C@@H]1CCCCNC(=O)CC[C@H](NC(=O)[C@H](CC(=O)O)NC(=O)[C@H](CC(C)C)NC(=O)[C@H](Cc2ccc(O)cc2)NC(=O)[C@H](CCCCN)NC(=O)[C@H](CO)NC(=O)[C@H](Cc2ccc(O)cc2)NC(=O)[C@H](CC(=O)O)NC(=O)[C@H](CO)NC(=O)[C@@H](NC(=O)[C@@H](O)Cc2ccccc2)[C@@H](C)O)C(=O)N[C@@H](CCCNC(=N)N)C(=O)N[C@@H](CCCNC(=N)N)C(=O)N[C@@H](C)C(=O)N1)C(C)C)C(=O)N[C@@H](CC(=O)O)C(=O)N[C@H](C(=O)N[C@@H](CCCCNC(=O)CCS[C@H]1CC[C@@]2(C)C(=CC[C@H]3[C@@H]4CC[C@H]([C@H](C)CCCC(C)C)[C@@]4(C)CC[C@@H]32)C1)C(N)=O)[C@@H](C)O
GLP-1 agonism EC50 [12]: 14.4 nM | Glucagon antagonism IC50 (inhibit 0.4 nM glucagon) [13]: 575 nM

B10: [hCys^9(SO3H)]Glucagon(aa5-29)-NH2 (peptide)
peptide: TFTS[Abu(4-SO3H)]YSKYLDSRRAQDFVQWLMNT-NH2
modifications: N-terminus assumed
SMILES: CSCC[C@H](NC(=O)[C@H](CC(C)C)NC(=O)[C@H](Cc1c[nH]c2ccccc12)NC(=O)[C@H](CCC(N)=O)NC(=O)[C@@H](NC(=O)[C@H](Cc1ccccc1)NC(=O)[C@H](CC(=O)O)NC(=O)[C@H](CCC(N)=O)NC(=O)[C@H](C)NC(=O)[C@H](CCCNC(=N)N)NC(=O)[C@H](CCCNC(=N)N)NC(=O)[C@H](CO)NC(=O)[C@H](CC(=O)O)NC(=O)[C@H](CC(C)C)NC(=O)[C@H](Cc1ccc(O)cc1)NC(=O)[C@H](CCCCN)NC(=O)[C@H](CO)NC(=O)[C@H](Cc1ccc(O)cc1)NC(=O)[C@H](CCS(=O)(=O)O)NC(=O)[C@H](CO)NC(=O)[C@@H](NC(=O)[C@H](Cc1ccccc1)NC(=O)[C@@H](N)[C@@H](C)O)[C@@H](C)O)C(C)C)C(=O)N[C@@H](CC(N)=O)C(=O)N[C@H](C(N)=O)[C@@H](C)O
IC50 [17]: 33.9 nM | cAMP IC50 [18]: 98.3 nM | cAMP pA2 [18]: 6.77

B11: [hCys^9(SO3H)]Glucagon(aa2-29)-NH2 (peptide)
peptide: SQGTFTS[Abu(4-SO3H)]YSKYLDSRRAQDFVQWLMNT-NH2
IC50 [17]: 13.2 nM | cAMP IC50 [18]: 147 nM
